The text below walks through data of publication PMC11500415, “Chemical inhibition of stomatal differentiation by perturbation of the master-regulatory bHLH heterodimer via an ACT-Like domain” (Nature Communications, 2024).

Where “and” joins values, the source holds several entries; their conditions need not be identical. Equal entries are not always repeated.

The test system of assay [1] is Commelina benghalensis stomatal opening induced by light. Nature of the assay: Measurement of stomatal opening. It is filed as in vivo. The settings on record: leaf discs 1-6. The method, then: The experiments were performed as described previously[30],[68]. Briefly, Stomidazolone or ABA were added to a multi-well plate with basal buffer [5 mM MES/bistrispropane (pH 6.5), 50 mM KCl, and 0.1 mM CaCl2] to be diluted to a final concentration of 50 or 20 µM, respectively. C. benghalensis plants were incubated in the dark overnight; then, 4 mm diameter leaf discs were excised from fully expanded leaves using a hole punch (Biopsy Punch, Kai Medical). Samples were immersed in a basal buffer containing compounds for 30 min before being exposed to light (150 µmol m^−2 s^−1 red light and 50 µmol m^−2 s^−1 blue light) for 3 h. The stomatal apertures were observed using a stereoscopic microscope (BX43; Olympus). The microscopic images were acquired with a charge-coupled device (CCD) camera (DP27; Olympus), followed by autofocus image processing using cellSens standard software (Olympus). Measurement of stomatal apertures of C. benghalensis was performed by using an automation program, DeepStomata[69].

The subject of assay [2] is Arabidopsis wild-type (WT) seedlings. Description: Stomatal development bioassay, seedlings in liquid culture. Format: in vivo. The conditions noted are these: 50 μM. The method, then: Arabidopsis accession Columbia (Col-0) was used as wild-type. […] Their genotype and transcript reduction were confirmed. The presence of transgenes/mutant alleles were confirmed by genotyping. For liquid culture with Stomidazolone (AYSJ929, compound 3), the analogs (AYSJ1059 (compound 5) and AYSJ1061 (compound 6)), degraded compound lzx103 (compound 4), and SIM3* (compound 7), all compounds were dissolved in dimethyl sulfoxide (DMSO, Molecular biology grade, Fujifilm Wako, Japan 046-21981), Col-0 seeds were sown in 96-well plates (TL5003; True Line) containing 95 μL of 1/2 MS media containing 0.5% sucrose with rotary shaking at 140 rpm under continuous light at 22 °C. Five μL of compounds were dissolved in DMSO at 10 mM and diluted with liquid 1/2 MS media to 1 mM and added on 1-day-old seedlings (final concentration, 50 μM). Seedlings were incubated for 8 days, and at day 9 seedling abaxial cotyledons were observed through confocal microscopy. For liquid culture of scrm-D_S343 and scrm-D_S423, 1/2 MS liquid media without sucrose was used. For the solid culture, 0, 20, 50 or 100 μM Stomidazolone were solidified with low-melting agarose (5805S, PrimeGelTM Agarose LMT 1-20 K, TAKARA Bio). Briefly, 1/2 MS salt, 0.5% sucrose, and 0.8% low melting agarose were mixed in water and autoclaved. After cooling the medium at around 30 °C, Stomidazolone (500x, dissolved in DMSO) was added and poured into 90 mm petri dishes (Asnol Petri Dish JP φ90 x 15 mm, 3-1491-01, AS ONE). Col-0 seeds were sown on Stomidazolone-containing 1/2 MS agarose media and grown under continuous light for 9 days.
For confocal microscopy, cell peripheries of seedlings were visualized with propidium iodide (Sigma, P4170). Images were acquired using LSM800 or LSM700 (Zeiss) using a 20x lens. The GFP, YFP reporter and PI signals were detected with excitation at 488 nm and an emission filter of 410 to 546 nm, at 488 nm and an emission filter of 410 to 546 nm, and with excitation at 561 nm and 582–617 nm emission range, respectively. Raw data were collected with 1024 × 1024 pixel images. For qualitative image presentation, Adobe Photoshop CC was used to trim and uniformly adjust the contrast/brightness.
For quantitative analysis of the abaxial leaf epidermis, confocal images were taken on the days after germination as indicated in the Figure legends. Preparation of images was done as described previously[32],[70]. For counting epidermal cell types, stomatal density, stomatal precursor cells (meristemoids), total stomata-lineage cells (stomata and meristemoids) were calculated by counting cell types in an area of 0.4 mm^2 (0.63 mm × 0.63 mm) and plotted as per mm^2. A series of Z-stack confocal images was obtained to obtain images covering the epidermis and capturing GFP/YFP signal from the reporter lines. The area and the number of epidermal cells were quantified by using FIJI-ImageJ. Statistical analyses were performed using R ver. 4.0.2. Sample sizes (n) are indicated and defined in each legend. For the multiple sample comparison, 1-way ANOVA was performed followed by a post hoc Tukey HSD test. For the two-sample comparison, Student’s T-test was performed. Graphs were generated using R ggplot2 package. For all boxplots, each box represents IQR (interquartile range), in which top, middle line, and bottom indicating 75, 50, and 25 percentiles, respectively, and the bar representing maximum to minimal values. Each magenta dot represents jittered individual data point. The datapoints that go beyond the bar are outliers, which are indicated as black dots. If the data point is greater than Q3 + 1.5*IQR (above the third quartile is greater than 1.5 times of the interquartile range) or less than Q1 − 1.5*IQR, that data point is classified as outlier. The color of Boxplot graph was based on ColorBrewer.org. The value of n, the number of each experiment or samples, the means of error bars, and how statistical significance was defined are indicated in a relevant figure legend. […]

Assay [3] addresses T1, SCREAM (SCRM), recombinant full-length protein (1-494) (A. thaliana, UniProt Q9LSE2 1-494).
T1 construct: SCRM (ICE1), A. thaliana, residues 1-494; called full-length in the results; The methods describe thrombin removal of GST for all recombinant proteins; For the BLI runs of SCRM with MUTE one partner must have kept GST (anti-GST probes); also called ICE1; source: E. coli BL21, purified (glutathione resin, thrombin digestion, Superdex-200); not shown: GST, N-terminal, cleaved
T1 sequence (looked up): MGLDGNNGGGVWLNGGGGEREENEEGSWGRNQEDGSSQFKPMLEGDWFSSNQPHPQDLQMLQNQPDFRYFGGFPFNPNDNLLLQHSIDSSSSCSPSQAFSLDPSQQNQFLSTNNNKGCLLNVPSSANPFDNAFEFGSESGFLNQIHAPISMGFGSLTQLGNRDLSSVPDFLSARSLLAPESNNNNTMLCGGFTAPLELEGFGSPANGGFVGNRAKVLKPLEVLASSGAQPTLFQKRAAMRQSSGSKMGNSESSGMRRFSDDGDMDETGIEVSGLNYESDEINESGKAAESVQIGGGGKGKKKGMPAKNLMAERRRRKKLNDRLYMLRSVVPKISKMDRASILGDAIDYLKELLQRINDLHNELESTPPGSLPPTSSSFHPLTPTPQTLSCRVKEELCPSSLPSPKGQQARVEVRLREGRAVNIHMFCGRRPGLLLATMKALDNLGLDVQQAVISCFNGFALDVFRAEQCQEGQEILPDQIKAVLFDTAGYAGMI
Nature of the assay: BLI; SCRM with MUTE in the presence of AYSJ1061 (6); Octet Red96, anti-GST probes loaded with 500 nM GST-tagged protein; 30 °C; 1x PBS, 2% DMSO, 0.02% Tween20; 1:1 model; KD (SS) from steady-state analysis. The conditions noted are these: both partners purified. On the technique in general: Biolayer interferometry detects binding as a change in optical thickness at a sensor tip.

The target in assay [4] is T1, SCREAM (SCRM), recombinant full-length …. Nature of the assay: BLI; SCRM with MUTE or MUTE mutants, no compound; Octet Red96, anti-GST probes loaded with 500 nM GST-tagged protein; 30 °C; 1x PBS, 2% DMSO, 0.02% Tween20; 1:1 model; KD (SS) from steady-state analysis. The settings on record: both partners purified.
Assay [5] shares this target. Nature of the assay: BLI; SCRM with MUTE or MUTE mutants in the presence of Stomidazolone (3) (MUTE pre-incubated); Octet Red96, anti-GST probes loaded with 500 nM GST-tagged protein; 30 °C; 1x PBS, 2% DMSO, 0.02% Tween20; 1:1 model; KD (SS) from steady-state analysis. The conditions noted are these: both partners purified.
Assay [6] shares this target. Description: BLI; SCRM with MUTE in the presence of AYSJ1059 (5); Octet Red96, anti-GST probes loaded with 500 nM GST-tagged protein; 30 °C; 1x PBS, 2% DMSO, 0.02% Tween20; 1:1 model; KD (SS) from steady-state analysis. The settings on record: both partners purified.

As to `O=C1C(c2ccccc2)=NC(NS(=O)(=O)c2ccccc2)(c2ccccc2)N1S(=O)(=O)c1ccccc1` (racemic) [AYST929], in assay [1] (AYST929 50 µM), the “stomatal movement, mean from 2 images from 1 leaf disc” value is 12.3654 and 10.3065 and 11.5398 and 6.9444 and 13.0998 and 7.007.
For the molecule `CC1=CC(=O)CC(C)(C)C1(O)/C=C/C(C)=C\C(=O)O` (centres unmarked) [ABA, reference compound], the “stomatal movement, value per image” value in assay [1] (ABA 20 µM, 2 images per leaf disc) is on record as 0. Besides, the “stomatal movement, mean from 2 images from 1 leaf disc” value in assay [1] (ABA 20 µM) is recorded as 0.
With `N=C(NS(=O)(=O)c1ccccc1)c1ccccc1` [lzx103], the “effect on stomatal development (in words)” value in assay [2] (WT seedlings, liquid culture) is “did not cause any effects”. Besides, in assay [2] (WT, single seedlings n=8 (Fig. S3d), listed as Izx-103), the “Number of stomata per 1 mm2 of cotyledon abaxial epidermis” value was 199 per 1 mm2 and 211 per 1 mm2 and 202 per 1 mm2 and 216 per 1 mm2 and 194 per 1 mm2 and 192 per 1 mm2 and 175 per 1 mm2.

B1: MUTE, recombinant full-length protein (1-202), as used in BLI with SCRM (natural protein, A. thaliana, UniProt Q9M8K6 1-202, looked up)
chain: MSHIAVERNRRRQMNEHLKSLRSLTPCFYIKRGDQASIIGGVIEFIKELQQLVQVLESKKRRKTLNRPSFPYDHQTIEPSSLGAATTRVPFSRIENVMTTSTFKEVGACCNSPHANVEAKISGSNVVLRVVSRRIVGQLVKIISVLEKLSFQVLHLNISSMEETVLYFFVVKIGLECHLSLEELTLEVQKSFVSDEVIVSTN
notes: BLI probes were anti-GST and loaded with 500 nM GST-tagged protein; source: E. coli BL21, purified (glutathione resin)
What is called Kd is the equilibrium constant for the complex coming apart. One may read the koff as the rate constant with which the complex falls apart. What is called kon is a measure of how fast the partners come together. Turning to B1, the Kd in assay [3] came to 12.8 ± 0.8 nM; in assay [4] it was 6.8 ± 0.5 nM; in assay [5], 755 ± 9.5 nM; in assay [6], 8.8 ± 0.6 nM. The koff in assay [3] was 0.000234 s⁻¹; in assay [4], 0.000147 s⁻¹; in assay [5] it was 0.00859 s⁻¹; in assay [6] it was 0.000188 s⁻¹. The kon in assay [3] came to 18200 M⁻¹ s⁻¹; in assay [4], 24200 M⁻¹ s⁻¹; in assay [5], 11400 M⁻¹ s⁻¹; in assay [6], 21300 M⁻¹ s⁻¹.

B2: MUTE_R133A_R134A, recombinant (natural protein, A. thaliana, UniProt Q9M8K6 1-202, looked up)
chain: MSHIAVERNRRRQMNEHLKSLRSLTPCFYIKRGDQASIIGGVIEFIKELQQLVQVLESKKRRKTLNRPSFPYDHQTIEPSSLGAATTRVPFSRIENVMTTSTFKEVGACCNSPHANVEAKISGSNVVLRVVSAAIVGQLVKIISVLEKLSFQVLHLNISSMEETVLYFFVVKIGLECHLSLEELTLEVQKSFVSDEVIVSTN
notes: MUTE, A. thaliana, with R133A and R134A; source: E. coli BL21, purified (glutathione resin)
B2: in assay [4], the Kd was 22.5 ± 1.8 nM, the koff stood at 0.000256 s⁻¹ and the kon was found to be 11300 M⁻¹ s⁻¹. Also, in assay [5], the Kd amounted to 62.5 ± 8.2 nM, the koff stood at 0.000834 s⁻¹ and the kon amounted to 13300 M⁻¹ s⁻¹.

B3: MUTE_R133A_R134A_E162A_E163A, recombinant (natural protein, A. thaliana, UniProt Q9M8K6 1-202, looked up)
chain: MSHIAVERNRRRQMNEHLKSLRSLTPCFYIKRGDQASIIGGVIEFIKELQQLVQVLESKKRRKTLNRPSFPYDHQTIEPSSLGAATTRVPFSRIENVMTTSTFKEVGACCNSPHANVEAKISGSNVVLRVVSAAIVGQLVKIISVLEKLSFQVLHLNISSMAATVLYFFVVKIGLECHLSLEELTLEVQKSFVSDEVIVSTN
notes: MUTE, A. thaliana, with R133A, R134A, E162A and E163A; source: E. coli BL21, purified (glutathione resin)
B3: in assay [4], the Kd came out at 26.5 ± 3.7 nM, the koff was 0.000414 s⁻¹ and the kon was determined as 15600 M⁻¹ s⁻¹. Further, in assay [5], the Kd worked out at 96.5 ± 12.8 nM, the koff is 0.000336 s⁻¹ and the kon stood at 3480 M⁻¹ s⁻¹.

B4: MUTE_E162A_E163A, recombinant (natural protein, A. thaliana, UniProt Q9M8K6 1-202, looked up)
chain: MSHIAVERNRRRQMNEHLKSLRSLTPCFYIKRGDQASIIGGVIEFIKELQQLVQVLESKKRRKTLNRPSFPYDHQTIEPSSLGAATTRVPFSRIENVMTTSTFKEVGACCNSPHANVEAKISGSNVVLRVVSRRIVGQLVKIISVLEKLSFQVLHLNISSMAATVLYFFVVKIGLECHLSLEELTLEVQKSFVSDEVIVSTN
notes: MUTE, A. thaliana, with E162A and E163A; source: E. coli BL21, purified (glutathione resin)
For B4, in assay [4], the Kd came out at 11.5 ± 2.6 nM, the koff was determined as 0.000334 s⁻¹ and the kon was determined as 29000 M⁻¹ s⁻¹. In assay [5], the Kd turned out to be 30.5 ± 4.8 nM, the koff turned out to be 0.000634 s⁻¹ and the kon came to 20700 M⁻¹ s⁻¹.
